Measured values from PMC6391921.

Columns and labels:
Test in all cases: BLI
[1] = target: H7ssF_B, H7 stabilized HA stem ferritin nanoparticle, design B (influenza A virus A/Shanghai/2/2013 (H7N9) | not stated) (UniProt Q9ZLI1)
[2] = target: H7ssF_C, H7 stabilized HA stem ferritin nanoparticle, design C (influenza A virus A/Shanghai/2/2013 (H7N9) | not stated) (UniProt Q9ZLI1)
[3] = target: H7ssF_D, H7 stabilized HA stem ferritin nanoparticle, design D (influenza A virus A/Shanghai/2/2013 (H7N9) | not stated) (UniProt Q9ZLI1)
[4] = target: H7ssF_E, H7 stabilized HA stem ferritin nanoparticle, design E (influenza A virus A/Shanghai/2/2013 (H7N9) | not stated) (UniProt Q9ZLI1)
[5] = target: H7ssF_F, H7 stabilized HA stem ferritin nanoparticle, design F (influenza A virus A/Shanghai/2/2013 (H7N9) | not stated) (UniProt Q9ZLI1)
[6] = target: H7ssF_I, H7 stabilized HA stem ferritin nanoparticle, design I (influenza A virus A/Shanghai/2/2013 (H7N9) | not stated) (UniProt Q9ZLI1)
[7] = target: H7ssF_J, H7 stabilized HA stem ferritin nanoparticle, design J (influenza A virus A/Shanghai/2/2013 (H7N9) | not stated) (UniProt Q9ZLI1)

CT149 Fab
Kd [1]: 7 nM | koff [1]: 0.003 s⁻¹ | kon [1]: 420000 M⁻¹ s⁻¹ | Kd [2]: 0.9 nM | koff [2]: 0.00053 s⁻¹ | kon [2]: 600000 M⁻¹ s⁻¹ | Kd [3]: 9 nM | koff [3]: 0.0033 s⁻¹ | kon [3]: 370000 M⁻¹ s⁻¹ | Kd [4]: 8.2 nM | koff [4]: 0.003 s⁻¹ | kon [4]: 370000 M⁻¹ s⁻¹ | Kd [5]: 2.7 nM | koff [5]: 0.0018 s⁻¹ | kon [5]: 670000 M⁻¹ s⁻¹ | Kd [6]: 7.2 nM | koff [6]: 0.0029 s⁻¹ | kon [6]: 410000 M⁻¹ s⁻¹ | Kd [7]: 9.8 nM | koff [7]: 0.0034 s⁻¹ | kon [7]: 350000 M⁻¹ s⁻¹
